How the values were obtained:
Experiment in all cases: flow cytometry (Mock 2.5)
ε (SARS-CoV-2) = biological target: ε (SARS-CoV-2)
κ (SARS-CoV-2) = biological target: κ (SARS-CoV-2)
ι (SARS-CoV-2) = biological target: ι (SARS-CoV-2)
[1] = biological target: SARS-CoV-2 δ variant spike protein, cell-expressed (SARS-CoV-2)
α (SARS-CoV-2) = biological target: α (SARS-CoV-2)
β (SARS-CoV-2) = biological target: β (SARS-CoV-2)
γ (SARS-CoV-2) = biological target: γ (SARS-CoV-2)

Sequence of Adintrevimab (antibody) (VH): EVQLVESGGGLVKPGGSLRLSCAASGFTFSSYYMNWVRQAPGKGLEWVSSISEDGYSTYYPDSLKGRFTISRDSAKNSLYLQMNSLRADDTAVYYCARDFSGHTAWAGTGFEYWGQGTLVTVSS
Sequence of Adintrevimab (antibody) (VL): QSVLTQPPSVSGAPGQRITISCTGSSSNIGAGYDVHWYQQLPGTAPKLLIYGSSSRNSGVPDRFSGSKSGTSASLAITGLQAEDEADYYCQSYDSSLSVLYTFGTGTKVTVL

With Adintrevimab (antibody) the log10 ΔgMFI (ε (SARS-CoV-2)) was 4.5, the log10 ΔgMFI (κ (SARS-CoV-2)) was 4.8 and the log10 ΔgMFI (ι (SARS-CoV-2)) was 4.9. The log10 ΔgMFI [1] was 4.5, the log10 ΔgMFI (α (SARS-CoV-2)) was 4.3 and the log10 ΔgMFI (β (SARS-CoV-2)) was 3.9. The log10 ΔgMFI (γ (SARS-CoV-2)) was 4.5.

In the case of TIX (antibody), the log10 ΔgMFI (ε (SARS-CoV-2)) is reported as 4.7, the log10 ΔgMFI (κ (SARS-CoV-2)) is reported as 4.9 and the log10 ΔgMFI (ι (SARS-CoV-2)) is reported as 4.9. For the same substance, the log10 ΔgMFI [1] was 4.7, the log10 ΔgMFI (α (SARS-CoV-2)) was 4.5 and the log10 ΔgMFI (β (SARS-CoV-2)) was 3.9. The log10 ΔgMFI (γ (SARS-CoV-2)) was 4.6.

In the case of ETE (antibody), the log10 ΔgMFI (ε (SARS-CoV-2)) is reported as 4.5, the log10 ΔgMFI (κ (SARS-CoV-2)) is reported as 4.7 and the log10 ΔgMFI (ι (SARS-CoV-2)) is reported as 4.8. For the same substance, the log10 ΔgMFI [1] was 4.5, the log10 ΔgMFI (α (SARS-CoV-2)) was 4.2 and the log10 ΔgMFI (β (SARS-CoV-2)) was 2.5. The log10 ΔgMFI (γ (SARS-CoV-2)) was 2.5.

For Cilgavimab (antibody), the log10 ΔgMFI (κ (SARS-CoV-2)) was 4.7, the log10 ΔgMFI (ι (SARS-CoV-2)) was 4.9 and the log10 ΔgMFI (α (SARS-CoV-2)) was 4.4. It also gave a log10 ΔgMFI (γ (SARS-CoV-2)) of 4.7.

For BAM (antibody), the log10 ΔgMFI (κ (SARS-CoV-2)) was 3.5, the log10 ΔgMFI (ι (SARS-CoV-2)) was 2.5 and the log10 ΔgMFI [1] was 2.5. The log10 ΔgMFI (α (SARS-CoV-2)) was 4.4, the log10 ΔgMFI (β (SARS-CoV-2)) was 2.5 and the log10 ΔgMFI (γ (SARS-CoV-2)) was 2.5.

In the case of CAS (antibody), the log10 ΔgMFI (ε (SARS-CoV-2)) is reported as 4.6, the log10 ΔgMFI (κ (SARS-CoV-2)) is reported as 4.9 and the log10 ΔgMFI (ι (SARS-CoV-2)) is reported as 4.9. For the same substance, the log10 ΔgMFI [1] was 4.6, the log10 ΔgMFI (α (SARS-CoV-2)) was 4.4 and the log10 ΔgMFI (β (SARS-CoV-2)) was 3.1.

Source: US20240336672A1
